Reference: patent EP1482987B1 (Bracco Suisse SA, dated 2014)
One block for each binder: values may come before it. *1 amine or outer side, *2 acyl side, *3 side chain or, on linkers, in order; H or OH if unused. Bridges are numbered along the chain shown (N, C = ends). Roman numbers before positions name the chains, in order. Primed or numbered codes have the meaning given here. Where no end group is shown, it is not given here. Side-chain parts run from the residue outwards. The star is where a group is joined. ivDde′ = (4,4-dimethyl-2,6-dioxocyclohex-1-ylidene)-3-methylbutyl protecting group, CC(C)CC(=C1C(=O)CC(C)(C)CC1=O)*; Biotin = O=C1N[C@H]2[C@H](CS[C@H]2CCCCC(=O)*)N1; Glutaryl = O=C(CCCC(=O)[*:2])[*:1]; AEEA = NCCOCCOCC(=O)O

Legend:
[1] = molecular target: KDR on human umbilical vein endothelial cells (HUVECs) (human, UniProt P35968 20-1356); assay: cell-based or functional assay
Soluble KDR receptor = Soluble KDR receptor (UniProt P35968 20-764, limits assumed); assay: SPR (Biacore 3000), soluble KDR on CM5
[2] = molecular target: KDR (full-length receptor) expressed on transiently transfected 293H cells (human) (UniProt P35968); assay: competition with 300 pM 125I-VEGF on KDR-transfected 293H cells; peptide 30 µM
[3] = molecular target: KDR (full-length receptor) expressed on transiently transfected 293H cells (human) (UniProt P35968); assay: competition with 300 pM 125I-VEGF on KDR-transfected 293H cells; peptide 0.3 µM

Sequence of KDR on human umbilical vein endothelial cells (HUVECs) (P35968 20-1356): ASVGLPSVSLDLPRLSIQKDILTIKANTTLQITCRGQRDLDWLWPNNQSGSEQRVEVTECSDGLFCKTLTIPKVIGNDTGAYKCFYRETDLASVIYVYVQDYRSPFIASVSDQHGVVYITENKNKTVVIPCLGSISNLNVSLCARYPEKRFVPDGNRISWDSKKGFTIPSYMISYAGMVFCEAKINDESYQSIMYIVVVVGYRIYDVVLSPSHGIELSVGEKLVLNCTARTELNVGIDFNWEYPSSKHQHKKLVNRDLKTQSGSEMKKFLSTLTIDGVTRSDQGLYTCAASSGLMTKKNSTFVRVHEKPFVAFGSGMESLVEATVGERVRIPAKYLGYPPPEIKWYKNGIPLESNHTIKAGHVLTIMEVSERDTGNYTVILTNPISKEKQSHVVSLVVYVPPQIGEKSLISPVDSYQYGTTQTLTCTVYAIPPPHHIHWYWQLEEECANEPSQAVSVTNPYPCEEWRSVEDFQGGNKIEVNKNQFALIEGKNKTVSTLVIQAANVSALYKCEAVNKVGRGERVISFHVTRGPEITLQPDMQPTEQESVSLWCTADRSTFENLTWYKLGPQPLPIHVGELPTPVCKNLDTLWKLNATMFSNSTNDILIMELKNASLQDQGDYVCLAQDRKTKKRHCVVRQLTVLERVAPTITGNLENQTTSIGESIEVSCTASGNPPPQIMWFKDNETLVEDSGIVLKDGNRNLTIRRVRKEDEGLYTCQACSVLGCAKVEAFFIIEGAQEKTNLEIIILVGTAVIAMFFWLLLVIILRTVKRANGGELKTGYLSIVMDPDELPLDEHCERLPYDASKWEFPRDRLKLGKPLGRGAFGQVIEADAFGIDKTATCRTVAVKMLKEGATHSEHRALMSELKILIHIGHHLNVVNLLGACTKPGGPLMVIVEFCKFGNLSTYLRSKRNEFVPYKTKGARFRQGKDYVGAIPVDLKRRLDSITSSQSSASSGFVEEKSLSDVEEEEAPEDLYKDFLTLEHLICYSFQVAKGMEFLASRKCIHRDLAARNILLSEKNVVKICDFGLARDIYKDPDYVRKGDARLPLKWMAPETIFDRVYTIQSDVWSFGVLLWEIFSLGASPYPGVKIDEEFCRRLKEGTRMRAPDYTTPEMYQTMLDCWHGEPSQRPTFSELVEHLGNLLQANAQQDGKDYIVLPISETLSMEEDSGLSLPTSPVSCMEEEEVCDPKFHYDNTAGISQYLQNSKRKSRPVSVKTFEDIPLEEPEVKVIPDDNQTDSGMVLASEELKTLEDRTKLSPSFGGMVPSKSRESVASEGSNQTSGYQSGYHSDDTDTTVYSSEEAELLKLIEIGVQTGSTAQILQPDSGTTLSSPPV
Sequence of KDR (full-length receptor) expressed on transiently transfected 293H cells (human) (P35968 20-1356): as above
Sequence of Soluble KDR receptor (P35968 20-764 limits assumed): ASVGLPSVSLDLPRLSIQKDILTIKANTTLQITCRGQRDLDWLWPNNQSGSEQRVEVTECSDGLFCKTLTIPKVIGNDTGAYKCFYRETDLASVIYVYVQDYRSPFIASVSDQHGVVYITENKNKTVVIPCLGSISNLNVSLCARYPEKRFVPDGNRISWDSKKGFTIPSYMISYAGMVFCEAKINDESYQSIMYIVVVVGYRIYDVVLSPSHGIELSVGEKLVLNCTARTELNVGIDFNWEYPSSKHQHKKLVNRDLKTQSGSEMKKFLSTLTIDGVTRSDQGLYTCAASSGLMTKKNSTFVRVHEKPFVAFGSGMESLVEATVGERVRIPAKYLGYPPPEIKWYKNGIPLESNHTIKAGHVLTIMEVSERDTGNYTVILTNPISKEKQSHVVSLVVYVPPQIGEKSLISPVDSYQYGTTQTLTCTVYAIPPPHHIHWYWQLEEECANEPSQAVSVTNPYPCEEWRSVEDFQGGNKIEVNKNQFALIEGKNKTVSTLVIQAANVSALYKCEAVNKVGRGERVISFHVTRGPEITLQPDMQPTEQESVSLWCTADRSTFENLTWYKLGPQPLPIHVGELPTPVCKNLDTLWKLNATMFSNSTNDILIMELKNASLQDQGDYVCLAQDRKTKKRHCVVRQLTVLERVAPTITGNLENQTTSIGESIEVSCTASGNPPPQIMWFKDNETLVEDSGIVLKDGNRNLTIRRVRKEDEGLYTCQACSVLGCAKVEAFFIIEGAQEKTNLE

B1: D1 (peptide)
peptide 1: AGPTWCEDDWYYCWLFGTGGGK
peptide 2: VCWEDSWGGEVCFRYDPGGGK
modifications: linker (positions not given here) via Glutaryl; disulfide I:6-I:13, II:2-II:12; also: two chains linked by a glutaryl linker, exact groups only in a drawing
IC50, receptor activation assay [1]: 0.5 to 1 nM

Binder: GDSRVCWEDSWGGEVCFRYDP [P6]
% inhibition of 125I-VEGF binding [2]: 96.3%
% inhibition of 125I-VEGF binding [3]: 52.3%

B5: P3-D (peptide)
peptide: Ac-AGWLECYAEFGHCYNFGTGGGK-NH2
modifications: disulfide 6-13
SMILES: CC(=O)N[C@@H](C)C(=O)NCC(=O)N[C@@H](Cc1c[nH]c2ccccc12)C(=O)N[C@@H](CC(C)C)C(=O)N[C@@H](CCC(=O)O)C(=O)N[C@H]1CSSC[C@@H](C(=O)N[C@@H](Cc2ccc(O)cc2)C(=O)N[C@@H](CC(N)=O)C(=O)N[C@@H](Cc2ccccc2)C(=O)NCC(=O)N[C@H](C(=O)NCC(=O)NCC(=O)NCC(=O)N[C@@H](CCCCN)C(N)=O)[C@@H](C)O)NC(=O)[C@H](Cc2c[nH]cn2)NC(=O)CNC(=O)[C@H](Cc2ccccc2)NC(=O)[C@H](CCC(=O)O)NC(=O)[C@H](C)NC(=O)[C@H](Cc2ccc(O)cc2)NC1=O
inhibition of VEGF-induced KDR phosphorylation [1]: ≥ 50 % inhibition at 10 µM

Other lines, results leading:

fold increase in affinity over P10 (Soluble KDR receptor): > 560 fold
B2: Head-to-head dimer (P9/P10 heterodimer) (peptide)
peptide 1: AQEPEGYAYWEVITLYHEEDGDGG
peptide 2: AQAFPRFGGDDYWIQQYLRYTDGG
modifications: bridge I:N-II:N; not fully specified (N-terminus); also: head-to-head heterodimer, N-termini joined by oxime
notes: also called H-H dimer

inhibition of VEGF-induced KDR phosphorylation [1]: ≥ 50 % inhibition at 10 µM
B3: P8-D (peptide)
peptide: Ac-GDPDTCTMWGDSGRWYCFPADPGGGK-NH2
modifications: disulfide 6-17
SMILES: CSCC[C@@H]1NC(=O)[C@H]([C@@H](C)O)NC(=O)[C@@H](NC(=O)[C@@H](NC(=O)[C@H](CC(=O)O)NC(=O)[C@@H]2CCCN2C(=O)[C@H](CC(=O)O)NC(=O)CNC(C)=O)[C@@H](C)O)CSSC[C@@H](C(=O)N[C@@H](Cc2ccccc2)C(=O)N2CCC[C@H]2C(=O)N[C@@H](C)C(=O)N[C@@H](CC(=O)O)C(=O)N2CCC[C@H]2C(=O)NCC(=O)NCC(=O)NCC(=O)N[C@@H](CCCCN)C(N)=O)NC(=O)[C@H](Cc2ccc(O)cc2)NC(=O)[C@H](Cc2c[nH]c3ccccc23)NC(=O)[C@H](CCCNC(=N)N)NC(=O)CNC(=O)[C@H](CO)NC(=O)[C@H](CC(=O)O)NC(=O)CNC(=O)[C@H](Cc2c[nH]c3ccccc23)NC1=O

inhibition of VEGF-induced KDR phosphorylation [1]: ≥ 50 % inhibition at 10 µM
B4: P7-E (peptide)
peptide: Ac-GDWWECK(ivDde′)REEYRNTTWCAWADPGGGK-NH2
modifications: disulfide 6-17
SMILES: CC(=O)NCC(=O)N[C@@H](CC(=O)O)C(=O)N[C@@H](Cc1c[nH]c2ccccc12)C(=O)N[C@@H](Cc1c[nH]c2ccccc12)C(=O)N[C@@H](CCC(=O)O)C(=O)N[C@H]1CSSC[C@@H](C(=O)N[C@@H](C)C(=O)N[C@@H](Cc2c[nH]c3ccccc23)C(=O)N[C@@H](C)C(=O)N[C@@H](CC(=O)O)C(=O)N2CCC[C@H]2C(=O)NCC(=O)NCC(=O)NCC(=O)N[C@@H](CCCCN)C(N)=O)NC(=O)[C@H](Cc2c[nH]c3ccccc23)NC(=O)[C@H]([C@@H](C)O)NC(=O)[C@H]([C@@H](C)O)NC(=O)[C@H](CC(N)=O)NC(=O)[C@H](CCCNC(=N)N)NC(=O)[C@H](Cc2ccc(O)cc2)NC(=O)[C@H](CCC(=O)O)NC(=O)[C@H](CCC(=O)O)NC(=O)[C@H](CCCNC(=N)N)NC(=O)[C@H](CCCCNC(CC(C)C)=C2C(=O)CC(C)(C)CC2=O)NC1=O

IC50, receptor activation assay [1]: 100 nM
% inhibition of 125I-VEGF binding [2]: 104%
% inhibition of 125I-VEGF binding [3]: 81%
B6: P12-XB (peptide)
peptide: Ac-AGPTWCEDDWYYCWLFGTGGGK([AEEA-AEEA-Biotin])-NH2
modifications: disulfide 6-13
SMILES: CC(=O)N[C@@H](C)C(=O)NCC(=O)N1CCC[C@H]1C(=O)N[C@H](C(=O)N[C@@H](Cc1c[nH]c2ccccc12)C(=O)N[C@H]1CSSC[C@@H](C(=O)N[C@@H](Cc2c[nH]c3ccccc23)C(=O)N[C@@H](CC(C)C)C(=O)N[C@@H](Cc2ccccc2)C(=O)NCC(=O)N[C@H](C(=O)NCC(=O)NCC(=O)NCC(=O)N[C@@H](CCCCNC(=O)COCCOCCNC(=O)COCCOCCNC(=O)CCCC[C@@H]2SC[C@@H]3NC(=O)N[C@@H]32)C(N)=O)[C@@H](C)O)NC(=O)[C@H](Cc2ccc(O)cc2)NC(=O)[C@H](Cc2ccc(O)cc2)NC(=O)[C@H](Cc2c[nH]c3ccccc23)NC(=O)[C@H](CC(=O)O)NC(=O)[C@H](CC(=O)O)NC(=O)[C@H](CCC(=O)O)NC1=O)[C@@H](C)O

inhibition of VEGF-induced KDR phosphorylation [1]: ≥ 50 % inhibition at 10 µM
Binder: Ac-AQGDYVYWEIIELTGATDHTPPGGGK-NH2 [P11-D]
